The text below walks through data of paper PMC8634136 (The EMBO Journal, 2021).

One assay has as its target T1, CLASPIN (human, UniProt Q9HAW4-1 1-1339).
T1 construct: human CLASPIN; residues 284-319, 525-540 and 592-618 modelled
The assay is described as follows: cryo-EM structure; independent replisome preparation that also contained CLASPIN; map EMD-13494 (to be published in a separate study), model PDB 7PFO docked into the density. The conditions noted are these: both partners purified.

Another assay deals with T2, TIMELESS (human, UniProt Q9UNS1 1-1208).
T2 construct: Stood in the structure as a subunit of m3; residues 7-803 modelled (527-684 not visualised)
T2 sequence: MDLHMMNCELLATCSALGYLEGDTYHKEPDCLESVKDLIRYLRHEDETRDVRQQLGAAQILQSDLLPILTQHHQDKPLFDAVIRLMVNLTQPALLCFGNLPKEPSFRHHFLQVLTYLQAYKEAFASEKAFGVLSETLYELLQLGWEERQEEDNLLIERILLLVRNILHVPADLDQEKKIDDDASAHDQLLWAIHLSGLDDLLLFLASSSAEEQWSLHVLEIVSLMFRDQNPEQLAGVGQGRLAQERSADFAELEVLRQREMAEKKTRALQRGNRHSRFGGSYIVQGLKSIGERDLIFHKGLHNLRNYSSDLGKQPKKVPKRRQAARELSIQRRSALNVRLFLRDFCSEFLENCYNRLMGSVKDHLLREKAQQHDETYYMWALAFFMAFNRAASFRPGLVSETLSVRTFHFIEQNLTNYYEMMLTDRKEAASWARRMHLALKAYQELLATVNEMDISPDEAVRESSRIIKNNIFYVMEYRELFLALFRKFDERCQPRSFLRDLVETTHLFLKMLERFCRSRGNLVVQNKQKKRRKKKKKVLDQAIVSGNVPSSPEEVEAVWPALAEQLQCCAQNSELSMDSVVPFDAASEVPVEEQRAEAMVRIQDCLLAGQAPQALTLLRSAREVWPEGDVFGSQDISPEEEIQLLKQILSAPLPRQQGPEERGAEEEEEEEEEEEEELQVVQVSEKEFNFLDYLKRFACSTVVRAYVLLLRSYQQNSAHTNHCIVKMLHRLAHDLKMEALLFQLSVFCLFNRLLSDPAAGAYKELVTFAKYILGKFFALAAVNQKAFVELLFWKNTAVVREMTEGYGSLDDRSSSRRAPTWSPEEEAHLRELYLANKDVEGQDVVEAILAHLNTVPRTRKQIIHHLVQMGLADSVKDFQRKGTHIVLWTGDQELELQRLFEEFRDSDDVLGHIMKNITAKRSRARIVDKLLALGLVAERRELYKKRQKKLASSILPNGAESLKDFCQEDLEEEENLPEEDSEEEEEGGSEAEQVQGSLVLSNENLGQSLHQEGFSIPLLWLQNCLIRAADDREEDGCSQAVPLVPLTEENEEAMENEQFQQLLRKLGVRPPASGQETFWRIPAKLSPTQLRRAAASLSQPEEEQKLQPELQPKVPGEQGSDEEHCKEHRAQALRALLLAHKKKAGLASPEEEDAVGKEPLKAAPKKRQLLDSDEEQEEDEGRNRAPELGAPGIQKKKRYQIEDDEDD
The assay is described as follows: cryo-EM structure; replisome reconstituted on fork DNA with AMP-PNP, isolated on a glycerol gradient with glutaraldehyde and BS3; 3.2 Å overall; a sample without CLASPIN solved at 3.4 Å. Particulars: both partners purified.

T1 sequence (Q9HAW4 whole entry, the tested form may be a part): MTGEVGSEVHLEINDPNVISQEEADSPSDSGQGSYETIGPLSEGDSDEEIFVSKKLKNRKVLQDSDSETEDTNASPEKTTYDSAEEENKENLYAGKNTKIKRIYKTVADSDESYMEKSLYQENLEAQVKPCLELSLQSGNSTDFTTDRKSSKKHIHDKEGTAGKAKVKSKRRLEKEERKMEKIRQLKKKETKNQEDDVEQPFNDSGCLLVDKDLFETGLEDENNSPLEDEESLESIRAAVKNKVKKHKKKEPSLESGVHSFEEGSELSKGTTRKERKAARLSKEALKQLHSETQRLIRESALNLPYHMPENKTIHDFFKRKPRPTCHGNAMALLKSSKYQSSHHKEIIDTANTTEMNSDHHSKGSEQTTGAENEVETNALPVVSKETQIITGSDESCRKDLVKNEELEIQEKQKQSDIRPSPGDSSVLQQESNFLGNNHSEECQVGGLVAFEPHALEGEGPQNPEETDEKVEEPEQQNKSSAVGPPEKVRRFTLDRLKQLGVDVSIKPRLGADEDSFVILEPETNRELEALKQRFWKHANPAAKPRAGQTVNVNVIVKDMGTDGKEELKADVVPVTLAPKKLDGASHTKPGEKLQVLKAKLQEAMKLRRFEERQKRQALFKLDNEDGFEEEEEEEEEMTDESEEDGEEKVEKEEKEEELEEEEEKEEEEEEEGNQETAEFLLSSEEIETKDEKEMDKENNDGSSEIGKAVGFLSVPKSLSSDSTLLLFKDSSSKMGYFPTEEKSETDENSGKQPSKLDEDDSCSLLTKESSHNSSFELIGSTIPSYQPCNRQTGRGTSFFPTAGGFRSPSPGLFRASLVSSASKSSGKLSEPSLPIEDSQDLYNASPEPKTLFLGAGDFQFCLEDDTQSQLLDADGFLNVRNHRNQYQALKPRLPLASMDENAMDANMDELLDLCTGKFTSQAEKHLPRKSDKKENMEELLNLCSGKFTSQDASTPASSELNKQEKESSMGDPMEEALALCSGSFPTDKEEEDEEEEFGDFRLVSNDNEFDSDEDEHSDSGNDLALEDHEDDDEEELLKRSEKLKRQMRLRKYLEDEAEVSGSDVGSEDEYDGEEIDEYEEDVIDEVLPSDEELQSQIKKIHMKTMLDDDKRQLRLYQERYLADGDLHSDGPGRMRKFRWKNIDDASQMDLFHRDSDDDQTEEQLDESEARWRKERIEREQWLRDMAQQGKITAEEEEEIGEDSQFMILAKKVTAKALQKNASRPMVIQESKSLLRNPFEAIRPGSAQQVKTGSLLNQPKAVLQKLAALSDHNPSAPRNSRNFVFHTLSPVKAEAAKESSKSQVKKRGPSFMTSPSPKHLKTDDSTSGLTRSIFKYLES

B1: TIMELESS (natural protein, human)
chain: MDLHMMNCELLATCSALGYLEGDTYHKEPDCLESVKDLIRYLRHEDETRDVRQQLGAAQILQSDLLPILTQHHQDKPLFDAVIRLMVNLTQPALLCFGNLPKEPSFRHHFLQVLTYLQAYKEAFASEKAFGVLSETLYELLQLGWEERQEEDNLLIERILLLVRNILHVPADLDQEKKIDDDASAHDQLLWAIHLSGLDDLLLFLASSSAEEQWSLHVLEIVSLMFRDQNPEQLAGVGQGRLAQERSADFAELEVLRQREMAEKKTRALQRGNRHSRFGGSYIVQGLKSIGERDLIFHKGLHNLRNYSSDLGKQPKKVPKRRQAARELSIQRRSALNVRLFLRDFCSEFLENCYNRLMGSVKDHLLREKAQQHDETYYMWALAFFMAFNRAASFRPGLVSETLSVRTFHFIEQNLTNYYEMMLTDRKEAASWARRMHLALKAYQELLATVNEMDISPDEAVRESSRIIKNNIFYVMEYRELFLALFRKFDERCQPRSFLRDLVETTHLFLKMLERFCRSRGNLVVQNKQKKRRKKKKKVLDQAIVSGNVPSSPEEVEAVWPALAEQLQCCAQNSELSMDSVVPFDAASEVPVEEQRAEAMVRIQDCLLAGQAPQALTLLRSAREVWPEGDVFGSQDISPEEEIQLLKQILSAPLPRQQGPEERGAEEEEEEEEEEEEELQVVQVSEKEFNFLDYLKRFACSTVVRAYVLLLRSYQQNSAHTNHCIVKMLHRLAHDLKMEALLFQLSVFCLFNRLLSDPAAGAYKELVTFAKYILGKFFALAAVNQKAFVELLFWKNTAVVREMTEGYGSLDDRSSSRRAPTWSPEEEAHLRELYLANKDVEGQDVVEAILAHLNTVPRTRKQIIHHLVQMGLADSVKDFQRKGTHIVLWTGDQELELQRLFEEFRDSDDVLGHIMKNITAKRSRARIVDKLLALGLVAERRELYKKRQKKLASSILPNGAESLKDFCQEDLEEEENLPEEDSEEEEEGGSEAEQVQGSLVLSNENLGQSLHQEGFSIPLLWLQNCLIRAADDREEDGCSQAVPLVPLTEENEEAMENEQFQQLLRKLGVRPPASGQETFWRIPAKLSPTQLRRAAASLSQPEEEQKLQPELQPKVPGEQGSDEEHCKEHRAQALRALLLAHKKKAGLASPEEEDAVGKEPLKAAPKKRQLLDSDEEQEEDEGRNRAPELGAPGIQKKKRYQIEDDEDD
notes: residues 7-803 modelled, 527-684 not seen; Purified together with TIPIN; written here as a single subunit for the pairwise contacts in the replisome structure
As for B1, the binding result in the assay with CLASPIN was “binds”.

B2: MCM4 (natural protein, human)
chain: MSSPASTPSRRGSRRGRATPAQTPRSEDARSSPSQRRRGEDSTSTGELQPMPTSPGVDLQSPAAQDVLFSSPPQMHSSAIPLDFDVSSPLTYGTPSSRVEGTPRSGVRGTPVRQRPDLGSAQKGLQVDLQSDGAAAEDIVASEQSLGQKLVIWGTDVNVAACKENFQRFLQRFIDPLAKEEENVGIDITEPLYMQRLGEINVIGEPFLNVNCEHIKSFDKNLYRQLISYPQEVIPTFDMAVNEIFFDRYPDSILEHQIQVRPFNALKTKNMRNLNPEDIDQLITISGMVIRTSQLIPEMQEAFFQCQVCAHTTRVEMDRGRIAEPSVCGRCHTTHSMALIHNRSLFSDKQMIKLQESPEDMPAGQTPHTVILFAHNDLVDKVQPGDRVNVTGIYRAVPIRVNPRVSNVKSVYKTHIDVIHYRKTDAKRLHGLDEEAEQKLFSEKRVELLKELSRKPDIYERLASALAPSIYEHEDIKKGILLQLFGGTRKDFSHTGRGKFRAEINILLCGDPGTSKSQLLQYVYNLVPRGQYTSGKGSSAVGLTAYVMKDPETRQLVLQTGALVLSDNGICCIDEFDKMNESTRSVLHEVMEQQTLSIAKAGIICQLNARTSVLAAANPIESQWNPKKTTIENIQLPHTLLSRFDLIFLLLDPQDEAYDRRLAHHLVALYYQSEEQAEEELLDMAVLKDYIAYAHSTIMPRLSEEASQALIEAYVDMRKIGSSRGMVSAYPRQLESLIRLAEAHAKVRLSNKVEAIDVEEAKRLHREALKQSATDPRTGIVDISILTTGMSATSRKRKEELAEALKKLILSKGKTPALKYQQLFEDIRGQSDIAITKDMFEEALRALADDDFLTVTGKTVRLL
notes: MCM4, human; Stood in the structure as a subunit of m1; source: Hi5 insect cells, purified as a subunit of hsCMG
Turning to B2, the binding result with TIMELESS is given as “binds”.
